Assay results reported in publication PMC7750480, “A hybrid approach reveals the allosteric regulation of GTP cyclohydrolase I” (Proceedings of the National Academy of Sciences of the …, 2020).

Assays:
Format in all cases: biochemical, human
Settings in all cases: other: substrate GTP 1-2000 µM, without GFRP, not stimulated/inhibited; pH 7.5; 37.0 °C
[1] = substrate: Nc1nc2c(ncn2[C@@H]2O[C@H](COP(=O)(O)OP(=O)(O)OP(=O)(O)O)[C@@H](O)[C@H]2O)c(=O)[nH]1; assay: enzyme kinetics, H2NTP formation at 330 nm, F122A GCH1
Procedure: (§1) In order to test the role of the key residues H126, D127, E128, R235, and R241 involved in allosteric inhibitor binding and conformational change, various point mutants were prepared and tested for their ability to be stimulated and inhibited by effector molecules in the presence or absence of GFRP. […] Enzyme activity was evaluated using an activity assay measuring the formation of the product H2NTP at 330 nm with increasing GTP concentrations.
(§2) GTPCH-I specific enzyme activity was determined by spectrometric measuring of the concentration of its direct product H2NTP. Synergy H1 (BioTek Instruments) and Gen5 2.01 software were used to evaluate H2NTP concentration and the maximal turnover rate (Vmax) within each measuring interval. H2NTP concentration was measured at 330 nm over a measuring period of 2 h using a measuring interval of 2 min to 4 min at 37 °C. Samples were prepared using 2 μM GTPCH-I, varying concentrations of GTP (1 μM to 2,000 µM) and in the absence or presence of 15 mM phenylalanine, 0.1 mM BH4, or 3 μM GFRP. The assay buffer used was 50 mM Tris/HCl, pH 7.5, 100 mM KCl. The specific enzyme activity (A) was calculated using the path length of 0.15 cm and the extinction coefficient […] = 6,300 M^−1⋅cm^−1 H2NTP. […] All enzymatic data were, at least, measured in triplicate (n = 3).

[2] = substrate: Nc1nc2c(ncn2[C@@H]2O[C@H](COP(=O)(O)OP(=O)(O)OP(=O)(O)O)[C@@H](O)[C@H]2O)c(=O)[nH]1; assay: enzyme kinetics, H2NTP formation at 330 nm, R235A-GCH1
Procedure: as §1, §2

[3] = substrate: Nc1nc2c(ncn2[C@@H]2O[C@H](COP(=O)(O)OP(=O)(O)OP(=O)(O)O)[C@@H](O)[C@H]2O)c(=O)[nH]1; assay: enzyme kinetics, H2NTP formation at 330 nm, D127A GCH1
Procedure: as §1, §2

[4] = substrate: Nc1nc2c(ncn2[C@@H]2O[C@H](COP(=O)(O)OP(=O)(O)OP(=O)(O)O)[C@@H](O)[C@H]2O)c(=O)[nH]1; assay: enzyme kinetics, H2NTP formation at 330 nm, R241A-GCH1
Procedure: as §1, §2

B1: F122A GCH1 (Homo sapiens; F122A) (protein)
chain: PEAKSAQPADGWKGERPRSEEDNELNLPNLAAAYSSILSSLGENPQRQGLLKTPWRAASAMQFFTKGYQETISDVLNDAIADEDHDEMVIVKDIDMFSMCEHHLVPFVGKVHIGYLPNKQVLGLSKLARIVEIYSRRLQVQERLTKQIAVAITEALRPAGVGVVVEATHMCMVMRGVQKMNSKTVTSTMLGVFREDPKTREEFLTLIRS
notes: The hGCH1 (42-250, N-terminal 6xHis Tag and TEV cleavage site); 6xHis (N); TEV cleavage site (N); made in house; host or cells: E. coli BL21(DE3)
[1]
  Km: 434 µM

B2: R235A-GCH1 (Homo sapiens; R235A) (protein)
chain: PEAKSAQPADGWKGERPRSEEDNELNLPNLAAAYSSILSSLGENPQRQGLLKTPWRAASAMQFFTKGYQETISDVLNDAIFDEDHDEMVIVKDIDMFSMCEHHLVPFVGKVHIGYLPNKQVLGLSKLARIVEIYSRRLQVQERLTKQIAVAITEALRPAGVGVVVEATHMCMVMRGVQKMNSKTVTSTMLGVFAEDPKTREEFLTLIRS
notes: as for B1
[2]
  Km: 328 µM

B3: D127A GCH1 (Homo sapiens; D127A) (protein)
chain: PEAKSAQPADGWKGERPRSEEDNELNLPNLAAAYSSILSSLGENPQRQGLLKTPWRAASAMQFFTKGYQETISDVLNDAIFDEDHAEMVIVKDIDMFSMCEHHLVPFVGKVHIGYLPNKQVLGLSKLARIVEIYSRRLQVQERLTKQIAVAITEALRPAGVGVVVEATHMCMVMRGVQKMNSKTVTSTMLGVFREDPKTREEFLTLIRS
notes: as for B1
[3]
  Km: 483 µM

B4: R241A-GCH1 (Homo sapiens; R241A) (protein)
chain: PEAKSAQPADGWKGERPRSEEDNELNLPNLAAAYSSILSSLGENPQRQGLLKTPWRAASAMQFFTKGYQETISDVLNDAIFDEDHDEMVIVKDIDMFSMCEHHLVPFVGKVHIGYLPNKQVLGLSKLARIVEIYSRRLQVQERLTKQIAVAITEALRPAGVGVVVEATHMCMVMRGVQKMNSKTVTSTMLGVFREDPKTAEEFLTLIRS
notes: as for B1
[4]
  Km: 306 µM
